Source: patent publication US20080299544

B1: NS3/4a PI (protein)
chain: MAPITAYAQQTRGLLGCIITSLTGRDKNQVEGEVQIVSTAAQTFLATCINGVCWTVYHGAGTRTIASPKGPVIQMYTNVDQDLVGWPAPQGSRSLTPCTCGSSDLYLVTRHADVIPVRRRGDSRGSLLSPRPISYLKGSSGGPLLCPAGHAVGIFRAAVCTRGVAKAVDFIPVENLETTMRSPVFTDNSSPPVVPQSFQVAHLHAPTGSGKSTKVPAAYAAQGYKVLVLNPSVAATLGFGAYMSKAHGIDPNIRTGVRTITTGSPITYSTYGKFLADGGCSGGAYDIIICDECHSTDATSILGIGTVLDQAETAGARLVVLATATPPGSVTVPHPNIEEVALSTTGEIPFYGKAIPLEVIKGGRHLIFCHSKKKCDELAAKLVALGINAVAYYRGLDVSVIPPIGDVVVVATDALMTGYTGDFDSVIDCNTCVTQTVDFSLDPTFTIETITLPQDAVSRTQRRGRTGRGKPGIYRFVAPGERPSGMFDSSVLCECYDAGCAWYELTPAETTVRLRAYMNTPGLPVCQDHLEFWEGVFTGLTHIDAHFLSQTKQSGENLPYLVAYQATVCARAQAPPPSWDQMWKCLIRLKPTLHGPTPLLYRLGAVQNEITLTHPVTKYIMTCMSADLEVVTSTWVLVGGVLAALAAYCLSTGCVVIVGRVVLSGKPAIIPDREVLYREFDEMEEC
proteolytic cleavage (SDS-PAGE and anti-hSOD Western blot after 30 minutes at room temperature) (MEFA 7.1): the NS3/4a cleaved MEFA 7.1 (lane 5, FIGS. 14A and 14B)
proteolytic cleavage (SDS-PAGE and anti-hSOD Western blot after 30 minutes at room temperature) (MEFA 7.2): MEFA 7.2, on the other hand, showed no degradation (lane 6, FIGS. 14A and 14B)
